Experimental findings from patent publication US20250282890A1 (TECHNISCHE UNIVERSIT T M NCHEN, published 2025) are described below.

Numbering of substitutions follows the chain as printed.

B1: 6-5D3-hFab (Fab, V domains shown)
VH: EVQLVESGGGLVQPGGSLRLSCAASGYAFNTSWMNWVRQAPGKGLEWISRIYPGDGDTNYNGKFKGKATISADKSKNTLYLQMNSLRAEDTAVYYCARGEWYLYYFDYWGQGTLVTVSS
VL: DIQMTQSPSSLSASVGDRVTITCSASQGINNFLTWYQQKPGKALKLLIYYTSSLHSGVPSRFSGSGSGTDYTLTISSLQPEDFATYYCQQYSNLPFTFGQGTKVEIK
notes: Humanized Fab with a TwinStrep tag at the C-terminus of the CH1 constant domain; also called version 6 of 5D3-Fab; antibody 6 (Fab format)
B2: 2-5D3-hFab (Fab, V domains shown)
VH: QVQLVQSGAEVKKPGASVKVSCKASGYAFNTSWMNWVRQAPGQGLEYIGRIYPGDGDTNYNGKFKGKATMTADKSISTVYMEVRRLRSDDTAVYYCARGEWYLYYFDYWGQGTLVTVSS
VL: B1 VL with Q38H, K39E, S77T, Q100G
notes: Humanized Fab with a TwinStrep tag at the C-terminus of the CH1 constant domain; also called version 2 of 5D3-Fab; antibody 2
B3: 5-5D3-hFab (Fab, V domains shown)
VH: B2 VH with A9P, K19R, V20L, Y47W, I76T, S77N, V79A, V83L, R85S, A97G
VL: B1 VL with L11V, T22S, P40L, K45Q, Q100P, E105D
notes: Humanized Fab with a TwinStrep tag at the C-terminus of the CH1 constant domain; also called version 5 of 5D3-Fab; antibody 5
B4: 2-5D3-IgG1 (antibody, V domains shown)
VH: B2 VH
VL: B1 VL with Q38H, K39E, S77T, Q100G
notes: also called full-length humanized 5D3 version 2
B5: 5-5D3-IgG1 (antibody, V domains shown)
VH: B2 VH with A9P, K19R, V20L, Y47W, I76T, S77N, V79A, V83L, R85S, A97G
VL: B1 VL with L11V, T22S, P40L, K45Q, Q100P, E105D
notes: also called full-length humanized 5D3 version 5
B6: 6-5D3-IgG1 (antibody, V domains shown)
VH: B1 VH
VL: B1 VL
modifications: N-glycosylation at VH N30
notes: also called h5D3; humanized 5D3
B7: h5D3 variant HVg4 (antibody, human IgG1, V domains shown)
VH: B1 VH with N30Q, D55E, G62A
VL: B1 VL
notes: Full-length human IgG1 kappa variant of h5D3 (antibody 6)
B8: h5D3 variant LVg2 (antibody, human IgG1, V domains shown)
VH: B1 VH
VL: B1 VL with N30E
notes: as for B7
B9: h5D3 variant HVg3 (antibody, human IgG1, V domains shown)
VH: B1 VH with N30Q, D55E, D57E, G62A
VL: B1 VL
notes: as for B7
B10: h5D3 variant HVg2 (antibody, human IgG1, V domains shown)
VH: B1 VH with N30Q, G56A, G62A
VL: B1 VL
notes: as for B7
B11: h5D3 variant LVg2HVg3 (antibody, human IgG1, V domains shown)
VH: B1 VH with N30Q, D55E, D57E, G62A
VL: B1 VL with N30E
notes: as for B7
B12: h5D3 variant HVg7 (antibody, human IgG1, V domains shown)
VH: B1 VH with N30Q
VL: B1 VL
notes: as for B7
B13: h5D3 variant HVg5 (antibody, human IgG1, V domains shown)
VH: B1 VH with N30Q, D55E, D57S, G62A
VL: B1 VL
notes: as for B7
B14: h5D3 variant LVg2HVg4 (antibody, human IgG1, V domains shown)
VH: B1 VH with N30Q, D55E, G62A
VL: B1 VL with N30E
notes: as for B7
B15: h5D3 variant LVg2HVg7 (antibody, human IgG1, V domains shown)
VH: B1 VH with N30Q
VL: B1 VL with N30E
notes: as for B7
B16: h5D3 variant LVg2HVg2 (antibody, human IgG1, V domains shown)
VH: B1 VH with N30Q, G56A, G62A
VL: B1 VL with N30E
notes: as for B7
B17: h5D3 variant LVg2HVg5 (antibody, human IgG1, V domains shown)
VH: B1 VH with N30Q, D55E, D57S, G62A
VL: B1 VL with N30E
notes: as for B7

The target of one experiment is T1, human PSMA displayed on the surface of LNCaP cells (human, UniProt Q04609 1-750).
T1 construct: Endogenous PSMA on living LNCaP cells; also called PSMA-positive LNCaP cells
T1 sequence (Q04609 whole entry): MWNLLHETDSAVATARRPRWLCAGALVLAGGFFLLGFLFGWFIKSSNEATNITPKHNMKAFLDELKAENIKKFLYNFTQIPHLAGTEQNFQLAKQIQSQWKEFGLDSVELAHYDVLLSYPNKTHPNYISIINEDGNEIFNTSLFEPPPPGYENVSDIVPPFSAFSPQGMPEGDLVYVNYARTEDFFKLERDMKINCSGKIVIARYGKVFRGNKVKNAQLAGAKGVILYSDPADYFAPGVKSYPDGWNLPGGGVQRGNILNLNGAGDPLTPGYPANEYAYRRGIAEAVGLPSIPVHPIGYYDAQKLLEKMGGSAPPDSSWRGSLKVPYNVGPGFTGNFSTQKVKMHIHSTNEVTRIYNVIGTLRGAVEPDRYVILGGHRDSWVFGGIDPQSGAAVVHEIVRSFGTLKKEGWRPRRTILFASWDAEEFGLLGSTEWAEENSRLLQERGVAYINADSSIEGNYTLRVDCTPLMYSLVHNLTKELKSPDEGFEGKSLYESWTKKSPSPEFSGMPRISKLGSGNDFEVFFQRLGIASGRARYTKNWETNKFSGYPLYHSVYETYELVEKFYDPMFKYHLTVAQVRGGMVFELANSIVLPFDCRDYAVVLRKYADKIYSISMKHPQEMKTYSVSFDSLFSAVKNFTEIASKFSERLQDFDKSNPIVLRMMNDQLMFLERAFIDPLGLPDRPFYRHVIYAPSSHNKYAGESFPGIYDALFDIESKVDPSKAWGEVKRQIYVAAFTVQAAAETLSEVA
Nature of the experiment: flow cytometry on LNCaP cells, Fab titrated. The method, then:
(§1) Flow cytometry was used to analyze affinity and specificity of 5D3-hFabs for PSMA in its physiological environment, i.e., at the surface of living cells. To this end, LNCaP and DU145 cells were used as representatives of PSMA-positive and PSMA-negative cell lines, respectively, in a protocol described previously (Novakova, Belousova et al. (2020), Int. J. Mol. Sci., 21(18):6672). Briefly, cells were treated by three-fold dilution series of 5D3-hFabs in the concentration range 6000 nM-0.42 pM. Bound 5D3-hFabs were detected by the combination of anti-Strep tag antibody and goat anti-mouse secondary antibody conjugated to Alexa Fluor 647. Cell samples were immediately analyzed using a LSRFortessa flow cytometer.
Turning to B1, the Kd (commonly the constant that tells how readily two partners part at equilibrium) amounted to 2800 pM.
The same measure, in the same setting: the result for B2 reads 3000 pM.
Same read-out and setting: in the case of B3 it was 4100 pM.

The next experiment addresses T1, human PSMA displayed on the surface of …. Nature of the experiment: flow cytometry on LNCaP cells, IgG1 titrated. The method, then:
as §1
Flow cytometry was used to analyze affinity and specificity of humanized 5D3-IgG1s for PSMA in its physiological environment as described above and data are shown in FIG. 11 and Table 2.
For the molecule B4, the Kd came out at 640 pM.
The same measure, in the same setting: the result for B5 reads 770 pM.
Same read-out and setting: the result for B6 reads 560 pM.

The target in a further experiment is T2, recombinant human PSMA (prostate-specific membrane antigen), biotin-tagged (human, UniProt Q04609 44-750, biotin tag (site not stated)).
T2 construct: also called biotin-tagged PSMA; biotin-labelled PSMA
T2 sequence (Q04609 44-750 limits assumed): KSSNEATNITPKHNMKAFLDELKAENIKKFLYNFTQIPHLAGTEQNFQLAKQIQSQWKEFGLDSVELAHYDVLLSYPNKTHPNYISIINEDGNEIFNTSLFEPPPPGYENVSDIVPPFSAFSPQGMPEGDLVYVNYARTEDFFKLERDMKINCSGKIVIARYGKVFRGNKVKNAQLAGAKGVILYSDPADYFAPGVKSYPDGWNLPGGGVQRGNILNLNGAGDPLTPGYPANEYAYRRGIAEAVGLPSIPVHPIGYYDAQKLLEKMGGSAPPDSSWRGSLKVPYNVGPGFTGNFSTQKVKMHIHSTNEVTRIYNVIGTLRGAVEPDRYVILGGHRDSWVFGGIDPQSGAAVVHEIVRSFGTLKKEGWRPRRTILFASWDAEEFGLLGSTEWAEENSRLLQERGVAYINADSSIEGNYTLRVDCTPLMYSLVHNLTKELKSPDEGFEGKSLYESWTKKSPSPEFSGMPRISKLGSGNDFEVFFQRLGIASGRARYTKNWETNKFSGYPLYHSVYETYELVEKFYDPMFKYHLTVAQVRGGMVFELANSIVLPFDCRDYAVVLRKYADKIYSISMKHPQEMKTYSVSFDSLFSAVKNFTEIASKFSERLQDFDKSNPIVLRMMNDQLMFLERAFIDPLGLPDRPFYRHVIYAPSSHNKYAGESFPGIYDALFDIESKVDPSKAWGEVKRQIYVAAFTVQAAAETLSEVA
Kind of experiment: native ELISA, streptavidin-captured biotin-tagged PSMA, Fab titrated. The method, then: (§2) Native ELISA was used to measure affinity of 5D3-hFabs for human PSMA. Experiments were performed in 96-well MaxiSorp plates coated with streptavidin complexed with biotin-tagged PSMA. Purified 5D3-hFabs were applied in 2-fold dilution series in the concentration range of 2000 nM-0.95 pM and goat anti-human secondary antibody conjugated to horseradish peroxidase, together with the TMB substrate, was used for 5D3-hFabs detection. Data were processed using a Prism 6 software (GraphPad, San Diego, CA) and binding curves fitted using an embedded non-linear curve-fitting algorithm (FIG. 4, Table 1). Affinity of all variants tested was in a single-digit nanomolar range (1.8-2.7 nM) and virtually identical to the parent murine and chimeric Fabs, documenting successful humanization results.
(In general: ELISA stands for enzyme-linked immunosorbent assay.)
As for B1, the Kd is 1800 pM.
On the same count and under the same terms, in the case of B2 it was 2700 pM; in that of B3, 1800 pM.

The target of the next experiment is T2, recombinant human PSMA …. Nature of the experiment: native ELISA, streptavidin-captured biotin-tagged PSMA, IgG1 titrated. The method, then:
as §2
Native ELISA was used to measure affinity of humanized 5D3-IgG1s for human PSMA in an experimental setup described above and binding curves together with corresponding KD values shown in FIG. 10 and Table 2, respectively. Affinity of all variants tested was in a picomolar range (260-380 pM) and virtually identical to the parent murine and chimeric full-length IgG1s, documenting successful outcome of the humanization process.
In the case of B4, the dissociation constant Kd turned out to be 260 pM.
Still for that read-out and setting: in the case of B5 it was 390 pM; in that of B6, 380 pM.

The target of the next experiment is T2, recombinant human PSMA …. Kind of experiment: ELISA on plates coated with recombinant PSMA, column head 'ELISA (nM)'. The method, then: (§3) FIG. 16—Affinities of optimized full-length antibodies determined by ELISA. Plates coated with recombinant PSMA were probed with two-fold dilution series of individual antibodies and binding was visualized using goat anti-human secondary antibody conjugated to horseradish peroxidase together with the TMB substrate. Binding curves were fitted using a non-linear regression algorithm.
(§4) Also, the affinity of the optimized humanized 5D3 variants was determined by ELISA (FIG. 16, Table 4).
As for B6, the dissociation constant Kd worked out at 250 pM.
Still for that read-out and setting: the result for B7 reads 360 pM.
The same measure, in the same setting: the result for B8 reads 290 pM; that for B9, 930 pM; that for B10, 340 pM.
Same read-out and setting: in the case of B11 it was 2690 pM; in that of B12, 350 pM.
For the molecule B13, the Kd worked out at 60 pM.
Still for that read-out and setting: the result for B14 reads 500 pM; that for B15, 370 pM; that for B16, 470 pM.
B17: the Kd stood at 200 pM.

A further experiment deals with T2, recombinant human PSMA …. Kind of experiment: ELISA on plates coated with recombinant PSMA, two-fold dilution series, goat anti-human-HRP and TMB.
Turning to B4, the concentration giving a half-maximal response (EC50 (read off the curve)) (usually the concentration at which the effect is half-maximal) was approximately 300 pM.
For B5, the 50% effective concentration (EC50 (read off the curve)) was approximately 400 pM.
The same measure, in the same setting: in the case of B6 it was approximately 400 pM.

A further experiment concerns the target T2, recombinant human PSMA …. Kind of experiment: PSMA ELISA on plates coated with recombinant PSMA, two-fold dilution series, goat anti-human-HRP and TMB.
Consider B6, for which the “EC50 (read off the curve)” value was approximately 400 pM.
On to B8, for which the “EC50 (read off the curve)” value is approximately 400 pM.
Regarding B9, the “EC50 (read off the curve)” value was approximately 900 pM.
Same read-out and setting: in the case of B10 it was approximately 400 pM.
Same read-out and setting: in the case of B11 it was approximately 3000 pM; in that of B16, approximately 500 pM.

Another experiment addresses T2, recombinant human PSMA …. The experiment is described as above. This is another data set of the same source. The method, then:
as §3, §4
Regarding B6, the concentration for a half-maximal effect (EC50 (read off the curve)) was approximately 500 pM.
Consider B7, for which the “EC50 (read off the curve)” value was approximately 400 pM.
Turning to B12, the “EC50 (read off the curve)” value is approximately 400 pM.
Take B13: the “EC50 (read off the curve)” value was approximately 200 pM.
Consider B14, for which the “EC50 (read off the curve)” value is approximately 500 pM.
Still for that read-out and setting: the result for B15 reads approximately 400 pM; that for B17, approximately 400 pM.

A further experiment has as its target T2, recombinant human PSMA …. Kind of experiment: ELISA on plates coated with recombinant PSMA (biotin-tagged, captured on streptavidin), two-fold dilution series, goat anti-human-HRP and TMB. The method, then: FIG. 4—Affinity of Fab variants determined by ELISA. Plates coated with recombinant PSMA were probed with two-fold dilution series of individual fragments and binding visualized using goat anti-human secondary antibody conjugated to horseradish peroxidase together with the TMB substrate. Binding curves were fitted using a non-linear regression algorithm.
as §2
As for B1, the “EC50 (read off the curve)” value is approximately 4000 pM.
The same measure, in the same setting: the result for B2 reads approximately 2000 pM; that for B3, approximately 4000 pM.

Another experiment addresses T1, human PSMA displayed on the surface of …. Nature of the experiment: flow cytometry titration on cells (three-fold dilution series, anti-Strep antibody and goat anti-mouse Alexa Fluor 647); the sheet does not name the cell line, the text gives the curves as binding to cell-surface PSMA (LNCaP). The method, then: FIG. 5—Affinity of Fab variants determined by flow cytometry. LNCaP (PSMA-positive) and DU145 (PSMA-negative) cell lines were probed with three-fold dilution series of tested Fab variants and bound antibodies visualized by the combination of anti-Strep and goat anti-mouse Alexa-Fluor647 antibodies. Cell samples were analyzed using a LSRFortessa flow cytometer and binding curves were fitted using a non-linear regression algorithm.
as §1
A general note: In flow cytometry, cells or beads pass a laser one at a time.
For B1, the “EC50 (read off the curve)” value is approximately 3000 pM.
Still for that read-out and setting: the result for B2 reads approximately 3000 pM.
Turning to B3, the concentration giving a half-maximal response (EC50 (read off the curve)) was approximately 4000 pM.
